System: B. cinerea
Assay: Open-air field trial on strawberry (Example 4.4, AUDPC of % disease severity)
Format: in vivo, Botrytis cinerea
Settings: FIG. 10
Procedure: RNAi compositions, each containing a dsRNA comprising a trigger sequence (GS349) described herein were evaluated for ability to control botrytis on strawberry in open-air field trials. All test samples were formulated as described in Example 4.3 and were tank mixed with standard adjuvant, Activator 90 0.25% v/v. Compositions were tested at concentrations of 10, 20, 30, and 40 g ai/ha. A biological standard program of Regalia 470 g ai/ha and Stylet Oil 6800 g ai/ha was used as a positive control. A chemical standard program of Captan 2240 g ai/ha and Switch 525 g ai/ha was used for a second positive control. An untreated check group was used as a negative control.
Compositions were applied to strawberry plants using a small plot sprayer delivering 50 gallons of water per acre. Five applications were made at weekly intervals. Disease state was evaluated beginning 6 days after the first application and ending 12 days after the fifth and final application. Percent Disease Severity was assessed and AUDPC was calculated in the same manner as noted in Example 4.1.

B1: GS349: dsRNA trigger targeting B. cinerea CDC42 (XM_001545642.2); trigger SEQ ID NO 14, RNA 26, reverse complement 38 (nucleic acid, listed as Botrytis cinerea)
sense: GUUGUCUUGUCUCGCUCAAGCUUGUCCUGUCUGGUCACUUUUCUUUCUGCCUGAUAAUCCAGACCUCGAAAAUAACCAAAAGAUUGGAAAUCGUUUGCUCAUCUUGCAUGCAUUAUUACUUUCCUGGAUCAAUCUCAUUCAACUCGUUCUCGUGCAUUUCAUUCAACCUCAACCCCUACUUUCAGUCAAUUCAAUUUAAUUCAAUCAUUCAAAUCUUUCAUUUCGCACACUUCACAUUCAACCAUCCUCUCUCAAUCAAAUAUCACCACCUCUCUUAUCGAACGUCAUUUUGCAUACAAUCAAUUCCUACAGACCGAGCGCAACUCGAUACAACCAUCGAAUAACUUCUCACACUUGCUUGUUGAAUUGAUUACUGAAGAAAGUGGAUUUCAAAGACCGAUUUUCCCCCUAGAUAUUCAAGAACGGCUUAUUCUUGUCUCGAGACAAAAC
antisense: GUUUUGUCUCGAGACAAGAAUAAGCCGUUCUUGAAUAUCUAGGGGGAAAAUCGGUCUUUGAAAUCCACUUUCUUCAGUAAUCAAUUCAACAAGCAAGUGUGAGAAGUUAUUCGAUGGUUGUAUCGAGUUGCGCUCGGUCUGUAGGAAUUGAUUGUAUGCAAAAUGACGUUCGAUAAGAGAGGUGGUGAUAUUUGAUUGAGAGAGGAUGGUUGAAUGUGAAGUGUGCGAAAUGAAAGAUUUGAAUGAUUGAAUUAAAUUGAAUUGACUGAAAGUAGGGGUUGAGGUUGAAUGAAAUGCACGAGAACGAGUUGAAUGAGAUUGAUCCAGGAAAGUAAUAAUGCAUGCAAGAUGAGCAAACGAUUUCCAAUCUUUUGGUUAUUUUCGAGGUCUGGAUUAUCAGGCAGAAAGAAAAGUGACCAGACAGGACAAGCUUGAGCGAGACAAGACAAC
Disease compared with the chemical standard program (AUDPC) (10, 20, 30 and 40 g ai/ha, Captan 2240 g ai/ha and Switch 525 g ai/ha): no significant difference | Disease compared with the biological standard program (AUDPC) (10, 20, 30 and 40 g ai/ha, Regalia 470 g ai/ha and Stylet Oil 6800 g ai/ha): no significant difference | Disease caused by B. cinerea vs untreated check (AUDPC) (formulated, Activator 90 0.25% v/v, 10, 20, 30 and 40 g ai/ha, five weekly applications): significantly reduced disease

From patent US20230189818A1, “RNA-BASED CONTROL OF BOTRYTIS” (priority 2021, published 2023)
